What was measured:
[1] = tested on: RAJI cells; assay: JNG assay, co-culture with RAJI cells; assay type: cell-based; settings: JNG cells expressing construct, co-culture with Raji
Method in brief: (§1)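 Jurkat-NFAT-GFP (JNG) cells stably expressing SAR constructs via lentiviral transduction and puromycin/blasticidin selection were cocultured with target cells at E:T ~1:2 for ~4–18 h. NFAT-driven GFP was measured by FACS versus parental JNG cells; scores +/- to 5+ denote ~5–50% GFP-positive cells.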

[2] = tested on: L363 cells; assay: JNG assay, co-culture with L363 cells; assay type: cell-based; settings: co-culture with L363
Method in brief: as §1

Row | Molecule | NFAT-GFP ASSAY: Raji [1] | NFAT-GFP ASSAY: L363 [2]
1 | 22029 (protein) MALPVTALLLPLALLLHAARPQLQLQESGPGLVKPSETLSLTCTVSGDSISSGDYYWGWIRQPPGKGLEWIGHIYYSGVTYYNPSLKSRVTISVDTSRNQFSLKLSSVTAADTAVYYCTREDSSNWRSRGQGTLVTVSSLEDKTHTCPPCPAPIKTDVITMDPKDNCSKDANDTLLLQLTNTSAYYMYLLLLLKSVVYFAIITCCLLRRTAFCCNGEKSRAKRSGSGATNFSLLKQAGDVEENPGPTSMDWIWRILFLVGAATGAHSFEVQLVESGGGVVQPGRSLRLSCAASGFSFSGYGMHWVRQAPGKGLEWVAYISYDGSNKYYADSVKGRFTISRDNSKNTLYLQMNSLRAEDTAVYYCAKDPAWGLRLGESSSYDFDIWGQGTMVTVSSTRIQNPDPAVYQLRDSKSSDKSVCLFTDFDSQTNVSQSKDSDVYITDKCVLDMRSMDFKSNSAVAWSNKSDFACANAFNNSIIPEDTFFPSPESSCDVKLVEKSFETDTNLNFQNLSVIGFRILLLKVAGFNLLMTLRLWSSRAKRSGSGVKQTLNFDLLKLAGDVESNPGPSRGHMTEYKPTVRLATRDDVPRAVRTLAAAFADYPATRHTVDPDRHIERVTELQELFLTRVGLDIGKVWVADDGAAVAVWTTPESVEAGAVFAEIGPRMAELSGSRLAAQQQMEGLLAPHRPKEPAWFLATVGVSPDHQGKGLGSAVVLPGVEAAERAGVPAFLETSAPRNLPFYERLGFTVTADVEVPEGPRTWCMTRKPGA | +/- (refer to approximately 5%, 10%, 20%, 30%, 40% and 50% GFP positive cells) | + (refer to approximately 5%, 10%, 20%, 30%, 40% and 50% GFP positive cells)
2 | 22152 (protein) MALPVTALLLPLALLLHAARPEVQLLESGGGLVQPGGSLRLSCAASGFTFSSYAMSWVRQAPGKGLEWVSSISGSGDYIYYADSVKGRFTISRDISKNTLYLQMNSLRAEDTAVYYCAKEGTGANSSLADYRGQGTLVTVSSGTGGGGSGGGGSGGGGSEFSYVLTQPPSVSVAPGQTARITCGGNNIGGKSVHWYQQPPGQAPVVVVYDDSDRPSGIPERFSGSNSGNTATLTISRVEAGDEAVYYCQVWDSSSDHVVFGGGTKLTVLLEDLKNVFPPEVAVFEPSEAEISHTQKATLVCLATGFYPDHVELSWWVNGKEVHSGVCTDPQPLKEQPALNDSRYCLSSRLRVSATFWQNPRNHFRCQVQFYGLSENDEWTQDRAKPVTQIVSAEAWGRADCGFTSESYQQGVLSATILYEILLGKATLYAVLVSALVLMAMVKRKDSRGRAKRSGSGATNFSLLKQAGDVEENPGPTSMDWIWRILFLVGAATGAHSFEQLQLQESGPGLVKPSETLSLTCTVSGGSISSSSYFWGWIRQPPGKGLEWIGSIYYSGITYYNPSLKSRVTISVDTSKNQFSLKLSSVTAADTAVYYCARHDGAVAGLFDYWGQGTLVTVSSATRIQNPDPAVYQLRDSKSSDKSVCLFTDFDSQTNVSQSKDSDVYITDKCVLDMRSMDFKSNSAVAWSNKSDFACANAFNNSIIPEDTFFPSPESSCDVKLVEKSFETDTNLNFQNLSVIGFRILLLKVAGFNLLMTLRLWSSRAKRSGSGVKQTLNFDLLKLAGDVESNPGPSRGHMTEYKPTVRLATRDDVPRAVRTLAAAFADYPATRHTVDPDRHIERVTELQELFLTRVGLDIGKVWVADDGAAVAVWTTPESVEAGAVFAEIGPRMAELSGSRLAAQQQMEGLLAPHRPKEPAWFLATVGVSPDHQGKGLGSAVVLPGVEAAERAGVPAFLETSAPRNLPFYERLGFTVTADVEVPEGPRTWCMTRKPGA |  | 2+ (refer to approximately 5%, 10%, 20%, 30%, 40% and 50% GFP positive cells)
3 | 22041 (protein) MALPVTALLLPLALLLHAARPQLQLQESGPGLVKPSETLSLTCTVSGDSISSGDYYWGWIRQPPGKGLEWIGHIYYSGVTYYNPSLKSRVTISVDTSRNQFSLKLSSVTAADTAVYYCTREDSSNWRSRGQGTLVTVSSLEGSGRADCGFTSESYQQGVLSATILYEILLGKATLYAVLVSALVLMAMVKRKDSRGRAKRSGSGATNFSLLKQAGDVEENPGPTSMDWIWRILFLVGAATGAHSFEVQLLESGGGLIQPGGSLRLSCAASGFTFSSHAMTWVRQAPGKGLEWVSAISGSGDYTHYADSVKGRFTISRDNSKNTVYLQMNSLRAEDSAVYYCAKDEDGGSLLGHRGQGTLVTVSSTRDKTHTCPPCPAIPEDTFFPSPESSCDVKLVEKSFETDTNLNFQNLSVIGFRILLLKVAGFNLLMTLRLWSSRAKRSGSGVKQTLNFDLLKLAGDVESNPGPSRGHMTEYKPTVRLATRDDVPRAVRTLAAAFADYPATRHTVDPDRHIERVTELQELFLTRVGLDIGKVWVADDGAAVAVWTTPESVEAGAVFAEIGPRMAELSGSRLAAQQQMEGLLAPHRPKEPAWFLATVGVSPDHQGKGLGSAVVLPGVEAAERAGVPAFLETSAPRNLPFYERLGFTVTADVEVPEGPRTWCMTRKPGA | + (refer to approximately 5%, 10%, 20%, 30%, 40% and 50% GFP positive cells) | + (refer to approximately 5%, 10%, 20%, 30%, 40% and 50% GFP positive cells)
4 | 22025 (protein) MALPVTALLLPLALLLHAARPQLQLQESGPGLVKPSETLSLTCTVSGDSISSGDYYWGWIRQPPGKGLEWIGHIYYSGVTYYNPSLKSRVTISVDTSRNQFSLKLSSVTAADTAVYYCTREDSSNWRSRGQGTLVTVSSLEDKTHTCPPCPAGRADCGFTSESYQQGVLSATILYEILLGKATLYAVLVSALVLMAMVKRKDSRGRAKRSGSGATNFSLLKQAGDVEENPGPTSMDWIWRILFLVGAATGAHSFEVQLLESGGGLIQPGGSLRLSCAASGFTFSSHAMTWVRQAPGKGLEWVSAISGSGDYTHYADSVKGRFTISRDNSKNTVYLQMNSLRAEDSAVYYCAKDEDGGSLLGHRGQGTLVTVSSTRDKTHTCPPCPAIPEDTFFPSPESSCDVKLVEKSFETDTNLNFQNLSVIGFRILLLKVAGFNLLMTLRLWSSRAKRSGSGVKQTLNFDLLKLAGDVESNPGPSRGHMTEYKPTVRLATRDDVPRAVRTLAAAFADYPATRHTVDPDRHIERVTELQELFLTRVGLDIGKVWVADDGAAVAVWTTPESVEAGAVFAEIGPRMAELSGSRLAAQQQMEGLLAPHRPKEPAWFLATVGVSPDHQGKGLGSAVVLPGVEAAERAGVPAFLETSAPRNLPFYERLGFTVTADVEVPEGPRTWCMTRKPGA | +/- (refer to approximately 5%, 10%, 20%, 30%, 40% and 50% GFP positive cells) | + (refer to approximately 5%, 10%, 20%, 30%, 40% and 50% GFP positive cells)
5 | 22083 (protein) MALPVTALLLPLALLLHAARPQLQLQESGPGLVKPSETLSLTCTVSGDSISSGDYYWGWIRQPPGKGLEWIGHIYYSGVTYYNPSLKSRVTISVDTSRNQFSLKLSSVTAADTAVYYCTREDSSNWRSRGQGTLVTVSSLESGGGGSFEEVQLLESGGGLVQPGGSLRLSCAASGFTFSSYAMSWVRQAPGKGLEWVSSISGSGDYIYYADSVKGRFTISRDISKNTLYLQMNSLRAEDTAVYYCAKEGTGANSSLADYRGQGTLVTVSSTRDKTHTCPPCPAIPEDTFFPSPESSCDVKLVEKSFETDTNLNFQNLSVIGFRILLLKVAGFNLLMTLRLWSS | +/- (refer to approximately 5%, 10%, 20%, 30%, 40% and 50% GFP positive cells) | +/- (refer to approximately 5%, 10%, 20%, 30%, 40% and 50% GFP positive cells)
6 | 22153 (protein) MALPVTALLLPLALLLHAARPACEVQLLESGGGLIQPGGSLRLSCAASGFTFSSHAMTWVRQAPGKGLEWVSAISGSGDYTHYADSVKGRFTISRDNSKNTVYLQMNSLRAEDSAVYYCAKDEDGGSLLGHRGQGTLVTVSSGTGGGGSGGGGSGGGGSEFSYVLTQPPSVSVAPGQTARITCGGNNIGGKSVHWYQQPPGQAPVVVVYDDSDRPSGIPERFSGSNSGNTATLTISRVEAGDEAVYYCQVWDSSSDHVVFGGGTKLTVLLEGQPKANPTVTLFPPSSEELQANKATLVCLISDFYPGAVTVAWKADGSPVKAGVETTKPSKQSNNKYAASSYLSLTPEQWKSHRSYSCQVTHEGSTVEKTVAPTECSPIKTDVITMDPKDNCSKDANDTLLLQLTNTSAYYMYLLLLLKSVVYFAIITCCLLRRTAFCCNGEKSRAKRSGSGATNFSLLKQAGDVEENPGPTSATMDWIWRILFLVGAATGAHSGPQVQLQESGGGLAQAGGSLRLSCAASGRTFSMGWFRQAPGKEREFVAAITYSGGSPYYASSVRGRFTISRDNAKNTVYLQMNSLKPEDTAVYYCAANPTYGSDWNAENWGQGTQVTVSSGSGGGGSGGGGSGGGGSFEQLQLQESGPGLVKPSETLSLTCTVSGGSISSSSYFWGWIRQPPGKGLEWIGSIYYSGITYYNPSLKSRVTISVDTSKNQFSLKLSSVTAADTAVYYCARHDGAVAGLFDYWGQGTLVTVSSATRASTKGPSVFPLAPSSKSTSGGTAALGCLVKDYFPEPVTVSWNSGALTSGVHTFPAVLQSSGLYSLSSVVTVPSSSLGTQTYICNVNHKPSNTKVDKRVEPKSCEVKTDSTDHVKPKETENTKQPSKSCHKPKAIVHTEKVNMMSLTVLGLRMLFAKTVAVNFLLTAKLFFLRAKRSGSGVKQTLNFDLLKLAGDVESNPGPSRGHMTEYKPTVRLATRDDVPRAVRTLAAAFADYPATRHTVDPDRHIERVTELQELFLTRVGLDIGKVWVADDGAAVAVWTTPESVEAGAVFAEIGPRMAELSGSRLAAQQQMEGLLAPHRPKEPAWFLATVGVSPDHQGKGLGSAVVLPGVEAAERAGVPAFLETSAPRNLPFYERLGFTVTADVEVPEGPRTWCMTRKPGA |  | 2+ (refer to approximately 5%, 10%, 20%, 30%, 40% and 50% GFP positive cells)
7 | 22034 (protein) MALPVTALLLPLALLLHAARPQLQLQESGPGLVKPSETLSLTCTVSGDSISSGDYYWGWIRQPPGKGLEWIGHIYYSGVTYYNPSLKSRVTISVDTSRNQFSLKLSSVTAADTAVYYCTREDSSNWRSRGQGTLVTVSSLESGGGGSFEEVQLLESGGGLVQPGGSLRLSCAASGFTFSSYAMSWVRQAPGKGLEWVSSISGSGDYIYYADSVKGRFTISRDISKNTLYLQMNSLRAEDTAVYYCAKEGTGANSSLADYRGQGTLVTVSSTREQKLISEEDGSGIQNPDPAVYQLRDSKSSDKSVCLFTDFDSQTNVSQSKDSDVYITDKCVLDMRSMDFKSNSAVAWSNKSDFACANAFNNSIIPEDTFFPSSDVPCDVKLVEKSFETDTNLNFQNLSVIGFRILLLKVAGFNLLMTLRLWSSRAKRSGSGVKQTLNFDLLKLAGDVESNPGPSRGRMAKPLSQEESTLIERATATINSIPISEDYSVASAALSSDGRIFTGVNVYHFTGGPCAELVVLGTAAAAAAGNLTCIVAIGNENRGILSPCGRCRQVLLDLHPGIKAIVKDSDGQPTAVGIRELLPSGYVWEG | +/- (refer to approximately 5%, 10%, 20%, 30%, 40% and 50% GFP positive cells) | +/- (refer to approximately 5%, 10%, 20%, 30%, 40% and 50% GFP positive cells)

From US20230212319A1, “NOVEL ANTIGEN BINDING DOMAINS AND SYNTHETIC ANTIGEN RECEPTORS INCORPORATING THE SAME” (University of Southern California, priority 2020, published 2023)
